In patent publication US20240358762A1 (UNIVERSITY OF PITTSBURGH OF THE COMMONWEALTH SYSTEM OF …, published 2024):

T1: human PRTG polypeptide (human, UniProt Q2VWP7 36-952, limits assumed)
T1 construct: also called protogenin
T1 sequence (looked up): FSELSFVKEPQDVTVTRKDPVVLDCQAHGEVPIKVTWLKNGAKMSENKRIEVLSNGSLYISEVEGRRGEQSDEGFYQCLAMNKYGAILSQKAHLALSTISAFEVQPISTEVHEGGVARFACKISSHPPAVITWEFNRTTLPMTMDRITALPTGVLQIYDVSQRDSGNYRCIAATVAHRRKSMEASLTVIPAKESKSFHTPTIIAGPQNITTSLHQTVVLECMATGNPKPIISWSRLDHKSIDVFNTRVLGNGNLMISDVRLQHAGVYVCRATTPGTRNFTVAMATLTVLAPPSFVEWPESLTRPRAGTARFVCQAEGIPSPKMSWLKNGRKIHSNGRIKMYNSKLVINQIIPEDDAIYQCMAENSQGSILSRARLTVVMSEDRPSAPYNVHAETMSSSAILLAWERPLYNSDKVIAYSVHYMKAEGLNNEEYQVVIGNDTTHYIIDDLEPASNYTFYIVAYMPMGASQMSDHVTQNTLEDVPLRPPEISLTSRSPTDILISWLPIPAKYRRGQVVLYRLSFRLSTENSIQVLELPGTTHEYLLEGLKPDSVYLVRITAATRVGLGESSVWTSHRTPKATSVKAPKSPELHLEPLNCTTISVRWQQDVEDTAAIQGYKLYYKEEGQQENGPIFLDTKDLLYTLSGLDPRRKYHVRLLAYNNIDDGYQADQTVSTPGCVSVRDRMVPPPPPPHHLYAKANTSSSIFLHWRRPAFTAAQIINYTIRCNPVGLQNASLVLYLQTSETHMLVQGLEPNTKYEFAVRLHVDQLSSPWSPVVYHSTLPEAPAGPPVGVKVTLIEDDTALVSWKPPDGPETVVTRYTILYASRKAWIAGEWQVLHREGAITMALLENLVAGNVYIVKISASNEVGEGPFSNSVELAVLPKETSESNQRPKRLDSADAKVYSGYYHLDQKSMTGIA

B1: VH domain Clone #1 (other)
VH: EVQLVESGGGLVQPGGSLRLSCKASGFTVSSNYMHWVRQAPGKGLEWIGGINHSGRTNYKSSLKSRVTISRDNSKNTLYLQMNSLRAEDTAVYYCARLPPSRDGYNYADYWGQGTLVTVSS
notes: also called #1 (VH domain)
B2: VH domain Clone #4 (other)
VH: EVQLVESGGGLVQPGGSLRLSCAASGSAFGSHWMHWVRQAPGKGLEWVSSISSGGSSIYYADSVKGRFTISRDNSKNTLYLQMNSLRAEDTAVYYCARVRRDDDSNYRPFDVWGQGTMVTVSS
notes: also called #4 (VH domain)
B3: VH domain Clone #5 (other)
VH: EVQLVESGGGLVQPGGSLRLSCKGSGFNFGDYAMHWVRQAPGKALEWIGYIYNTGSTKYNPSLKSLVTISRDNSKNTLYLQMNSLRAEDTATYYCVSTVTNGVEYFQHWGQGTLVTVSS
notes: also called #5 (VH domain)
B4: VH domain Clone #3 (other)
VH: EVQLVESGGGLVQPGGSLRLSCAASYFDFDSYEMSWVRQAPGKALEWLGRIYTSGTTNYNPSLKSRVTISRDNSKNTLYLQMNSLRAEDTATYYCAMTGPYYDSSGYYPARHAEYFQHWGQGTLVTVSS
notes: also called #3 (VH domain)
B5: VH domain Clone #6 (other)
VH: EVQLVESGGGLVQPGGSLRLSCAASGFTFSNYGMSWVRQAPGQRLEWIGWIDTKTGNPRYGQGFTGRFTISRDNSKNTLYLQMNSLRAEDTATYYCVSTVPNGVEYFQHWGQGTLVTVSS
notes: also called #6 (VH domain)
B6: VH domain Clone #8 (other)
VH: EVQLVESGGGLVQPGGSLRLSCKGSGFTFSNYWMHWVRQAPGKGLEWVSAISGSGGSTYYADSVKGRFTISRDNSKNTLYLQMNSLRAEDTATYYCATLCRGDSCYSPFDPWGQGTLVTVSSS
notes: also called #8 (VH domain)
B7: VH domain Clone #2 (other)
VH: EVQLVESGGGLVQPGGSLRLSCKGSGFTFSNFAMNWVRQAPGKGLEWVSAISGSGGSTYYADSVKGRFTISRDNSKNTLYLQMNSLRAEDTALYYCARGPDYYGSGSHGWFDPWGQGTLVTVSS
notes: also called #2 (VH domain)
B8: VH domain Clone #7 (other)
VH: EVQLVESGGGLVQPGGSLRLSCAASGFTFSNAWMSWVRQAPGKGLEWIGRIYSSGSTNYNPSLKSRVTISRDNSKNTLYLQMNSLRAEDTALYYCASTYRSSSGEYFQHWGQGTLVTVSSS
notes: also called #7 (VH domain)

Each binder was assayed against T1, human PRTG polypeptide (assay: ELISA and SPR (Blitz) as stated; which method gave the EC50 is not said).
Method: Binding affinity and specificity to a human PRTG polypeptide were tested using an ELISA and SPR (Blitz). […] Clone #1 was determined to bind to the human PRTG fibronectin type-III 1 domain; clone #2 was determined to bind to the human PRTG fibronectin type-III 3 domain; and clones #3, #4, #5, #6, #7, and #8 were determined to bind to the human PRTG fibronectin type-III 5 domain. Clone #1 binding to the human PRTG fibronectin type-III 1 domain was determined by ELISA. Clone #2 binding was based on the panning being performed using a PRTG fibronectin type-III 3 domain; and clones #3, #4, #5, #6, #7, and #8 binding was based on the panning being performed using a PRTG fibronectin type-III 5 domain.

| EC50 | Binder |
| --- | --- |
| 2.8 nM | B1 |
| 0.9 nM | B2 |
| 1.35 nM | B3 |
| 0.75 nM | B4 |
| 6.25 nM | B5 |
| 0.81 nM | B6 |
| 30 nM | B7 |
| 0.29 nM | B8 |
